The DeepSol protein solubility set

Assay: soluble on expression in E. coli; label from the status in PepcDB or PDB records

Sequence | soluble on expression in E. coli
MRPKKDGLEDFLRLTPEIKKQLGSLVSDYCNVLNKEFTAGSVEITLRSYKICKAFINEAKAHGREWGGLMATLNICNFWAILRNNRVRRRAENAGNDACSIACPIVMRYVLDHLIVVTDRFFIQAPSNRVMIPATIGTAMYKLLKHSRVRAYTYSKVLGVDRAAIMASGKQVVEHLNRMEKEGLLSSKFKAFCKWVFTYPVLEEMFQTMVSSKTGHLTDDVKDVRALIKTLPRASYSSHAGQRSYVSGVLPACLLSTKSKAVETPILVSGADRMDEELMGNDGGASHTEARYSESGQFHAFTDELESLPSPTMPLKPGAQSADCGDSSSSSSDSGNSDTEQSEREEARAEAPRLRAPKSRRTSRPNRGQTPCPSNAAEPEQPWIAAVHQESDERPIFPHPSKPTFLPPVKRKKGLRDSREGMFLPKPEAGSAISDVFEGREVCQPKRIRPFHPPGSPWANRPLPASLAPTPTGPVHEPVGSLTPAPVPQPLDPAPAVTPEASHLLEDPDEETSQAVKALREMADTVIPQKEEAAICGQMDLSHPPPRGHLDELTTTLESMTEDLNLDSPLTPELNEILDTFLNDECLLHAMHISTGLSIFDTSLF | not soluble
MPDSPTPGRRERKKAATRQAIADAALQLFLEHGFDRVSVRDVAERADVSTTTLFAHFPSKESLVFDREQEVDAALAAAVRERPDGQGVVEALRAHALESWVPIVTDPRRARFTALVSDTPALREYSERMWMRHADTLSTVIAEELDREPDDSACAALARFVLEIPALTTGRHDPRATVETVFDLLLHGWRSQAGPRPPQADGR | not soluble
MPYTFENSEALLKNLKDAAPYISAAERFASFKGFVYDKRINIACTSEKLARAGFYSTASPEFPASAKCPFCMLEINFEQCDDPWEKHKSGSPHCEFVMIGEIEESELSFRIISNLAIRHATVRLYEELLGIVATLENGDIANENPITRADATRKLISFRSSSKLLTFDHRLATFQNFIFDKKRNVKCTSKKLAKAGWFSIANKKDKTSAKCPFCLVELDFDESDDPWEEHQKFSASCDFIKLGKLDEKKWTENEALMLGARITIMQKYEKGSWLIDELEKENRIDEIIKIRKIMIKPNHVLKRRRCSI | not soluble
AIAAIAEKAKGKEWTSTEKSREEDQQASNQPNSIALPGTSAKRTKEKMSVKGSKVLCPKKKAEHTDNPRPQKKIPIPPLPSKLPPVNLIHRDILRAWCQQLKLSSKGQKLDAYKRLCAFAYPNQKDFPSTAKEAKIRKSLQKKLKVEKGETSLQSSETHPPEVALPPVGEPPALENSTALLEGVNTVVVTTSAPEALLASWARISARARTPEAVESPQEASGVRWCVVHGKSLPADTDGWVHLQFHAGQAWVPEKQEGRVSALFLLPASNFPPPHLEDNMLCPKCVHRNKVLIKSLQWE | soluble
MGSDKIHHHHHHMRFGLDLGTTRTIAAAVDRGNYPIVTVEDSLGDTHDFIPSVVALKADRIVAGWDAIEVGQDHPSFVRSFKRLLSEPNVTEATPVYLGDHVHPLGAVLEAFAENVVTALRAFQTQLGDTSPIEVVIGVPANSHSAQRLLTMSAFSATGITVVGLVNEPSAAAFEYTHRHARTLNSKRQAIVVYDLGGGTFDSSLIRIDGTHHEVVSSIGISRLGGDDFDEILLQCALKAAGRQHDAFGKRAKNTLLDESRNAKEALVPQSRRLVLEIGDDDITVPVNKFYEAATPLVEKSLSIMEPLIGVDDLKDSDIAGIYLVGGGSSLPLVSRLLRERFGRRVHRSPFPSGSTAVGLAIAADPSSGFHLRDRVARGIGVFREHDSGRAVSFDPLIAPDTDSATVAKRCYKAVHNIGWFRFVEYSTVSEDGSPGDISLLSEIKIPFDSSITDVDATEISRFDGPEVEETITVNDNGVASISIKILGGVTVEHTI | not soluble
MITCLIVDDELFAREELADSLSQEADIEIIGQCSNAIEALQTITKEKPQLVFLDIQMPRISGMELIAMLDPDTLPKIVFVTAFDEFAVKAFDNHAFDYLLKPIDADRLSKTLKRVRKDLTPQAVNLIAPRSLEHLPCYSGSKLKVIPIQDVEYVFSDLSGIHVACTKGKVHTQLTLKVLEEKTPLVHCHRQYLISPKAIAEIELLDTGAEVTTLLGDKVPVSRRYLKSLKQLFGFQ | not soluble
FLKGGFDPKMNSKEALQILNLTENTLTKKKLKEVHRKIMLANHPDKGGSPFLATKINEAKDFLEKRGISK | not soluble
MGSDKIHHHHHHIPFDESIQTVDDVNLAVIGIYDAFKSSALYSGNLTILPDLQADLVYGVNGNTNTFGDIWRWKDILATNTSIEAVYAGLYNVINRCNFMLDRVDRVRNNTTDDKDLYKLDQCCGEAYFARAIAYSELVKMFCKAYESDEDAANQLGVILTKHYQGNEEMKRASLKASYEFILEDLDRAAQLLALDKDYDPSVDGALFNNATYFNEYTVYALRARVALYMRKWDEAIKYSSKVIDSEYYLLASCTRTISSGVSYYKYMWTDDMSTEAIWKVGFTINSYGGKLGQIFLNYNHVNYRPDYVPANWVFGLYDSNDLRPETIFQTLQTGFSHGLSWPLLIKYAGNNEFIAANILHVSMPKVLRLSEQYLIRAEAYVQQAQPDYGRAGKDITTLRTARYSTYGGSTALSASNAMEVIEAERVKELYMEGFRLHDLKRWHKGFERKPQDQSLANGSSLKVEADDPLFVWPIPQHELDAPGSQVQPNESNK | not soluble
MPDRTTDDFGPFTEQIRGTIDGMGTAEFDALPVGAIQVDGSGVIHRYNRTESRLSGRIPERVIGRNFFTEVAPCTNIPAFSGRFMDGVTSGTLDARFDFVFDFQMAPVRVQIRMQNAGVPDRYWIFVRK | soluble
MQVIAFIAPLIDKGMDPLTGVPIRQEVPRLMERTFQENQAETYVLFLINLDRFKLVNDSLGEGYGDQVLQTLVRRLLWQLPNQQWIARVSGDEFIACAAIKGELPKKETLATYISSIIQQPFQVDEVQFTMTASIGAAVYPMDGKSVEMIWNSLERALRHAKARGGNCVSWFCQELKDEWIHPFRLENDLRRAVENQELEHHHHHH | not soluble
RIAISNSNRTRSVPSLTTIWSISPTPNCSIYETQDANLFLCLTKNGAHVLGTITIKGLKGALREMHDNALSLKLPFDNQGNLLNCALESSTWRYQETNAVASNALTFMPNSTVYPRNKTAHPGNMLIQISPNITFSVVYNEINSGYAFTFKWSAEPGKPFHPPTAVFCYITEQGSHHHHHH | soluble
MGSDKIHHHHHHVSQLSPWQHYQQDLKRDDFSHDLAQEQAVTALQRVYEELIAATKPASGIAALLKAVTGKNKRASVQGLYLWGGVGRGKTYLMDTFFDALPTEDKLRAHFHRFMHQLHHDLGELKGVQDPLLTIAKKMAKQYQVICFDEFFVSDITDAMLLGTLFQALFKEGVVLVATSNIIPDELYKNGLQRARFLPAIALINQHCQILNVDSGIDYRLRTLEQAEIYHHPLDAQADVNLLQYFKQLAPESEVFTHALDIDGRKIAIRQQSQGVLLVDFRALCDGPRSQRDYMEIARLYHTVLLSGLVQMGAQQTGDDIARRFLAVVDEFYERNVKLIISAQVSLEQIYTQGQLDFEFRRCRSRLIEMQSHDYLALEHLP | not soluble
MGSDKIHHHHHHMVVKIGLLGFGTVASGVPFLLEENQEKIEKAAHDSIEVAKVLVKDEAEKDRLLAAGHDYHFVTNIDDILADEDIAIVVELMGRIEPAKTFITHALEAGKHIVTANKDLLAVHGSELRALAEEKGLALYYEAAVAGGIPILRTLVNSLAADKVTRILGVLNGTSNFMLTKMVDEGWTYEKALQTAQELGYAESDPTNDVEGIDAAYKAVILSQFAFGMTVDFEHVAHKGISNITPEDVAVAQELGYVIKLVGDIQETTSGIAAEVSPTFLPKNHPLASVNGVMNAVFVESIGIGQSMYYGPGAGQKPTATSVMADIIRIVRRLKDNTIGKAFNEYSRSLQLAAPSDVKSEYYFSIDAPDKNGKMLRLAEIFNSEEISFKQILQQAADGETARLVIVTHEMSKTQLENVTDKLSKETDFTVLNTFKVLGE | not soluble
MEASEEVTMVNKGDDGKSGIRYYTTIEELSRAINAGLSLQDRRMSEEEAMEAAEHIINFFGYNDRVIDNMLEPEDRDSFYTMEDIGILQTEREETTLFDGREWRIHYWILNINKIMELANMQVDYKKKITNDEYKIYDEIPDDYWKVVE | not soluble
GSFTFSPGQDIQLIPPLINLLMSIEPDVIYAGHDNTKPDTSSSLLTSLNQLGERQLLSVVKWSKSLPGFRNLHIDDQITLIQYSWMSLMVFGLGWRSYKHVSGQMLYFAPDLILNEQRMKESSFYSLCLTMWQIPQEFVKLQVSQEEFLCMKVLLLLNTIPLEGLRSQTQFEEMRSSYIRELIKAIGLRQKGVVSSSQRFYQLTKLLDNLHDLVKQLHLYCLNTFIQSRALSVEFPEMMSEVIAAQLPKILAGMVKPLLFHKK | soluble
MGDVQMGNCLRIPSANMAPALPEHGTAEASTSNPMPHAGNMTAGPQEHTAVEGCAGRQIADMWLSSLERPARRPSGSRSQPTAQSRPQSKLEKLTEQRQSMLQRAIILEDQWRSLQERCARTSVGGRQAFNLDILKGIIDRDKQALERMGGEGSYIAERHLHRIERTLQDFEKKISNQKKLQSHLAKANDFLARLKLLKDELSSRGENKDILNDIDLNIKDLEGILNELTRIEANGAGIQYDGCRGGAIAYFDSVTISLEAMLRSQDSGYFDYMRPALANVLQDGYSPSRRKAVSDAGMRGGASDGIS | not soluble
MLPKRNSGDNELYTNREKRKKMTSYIADSAVFIMGNCGVDSSLLITVPSVADELKSRDSMLRFDLAKEEGLRVEWPEPEMVKEVRKKAEQTRDSEELSKTDLEILAKALEHRETAVLLTDDYAVQNVAVQLGIQVKPIAQKKIKDVLIWQKQCTGCKKTFDKGDECPICGSPLKKKRKRKLKGKGYRESLEHHHHHH | not soluble
MAGDPNSMNLKQSIEEIINQPEYEPMSVSDFQDALGLSSADSFRDLIKVLVELEQSGLIERTKTDRYQKKHSSKGHSKLIKGTLSQNKKGFAFLRPEDEDMEDIFIPPTKINRALDGDTVIVEIHQSKGEHKGKIEGEVKSIEKHSVTQVVGTYSEARHFGFVIPDDKRIMQDIFIPKGQSLGAVDGHKVLVQITKYADGSDNPEGHISAILGHKNDPGVDILSIIYQHGIEIEFPDEVLQEAEAVPDHIENTEIKGRHDLRDELTITIDGADAKDLDDAISVKKLANGNTQLTVSIADVSYYVTEGSALDKEAYDRATSVYLVDRVIPMIPHRLSNGICSLNPNVDRLTLSCRMEIDASGRVVKHEIFDSVIHSDYRMTYDAVNQIITEKDPNIREQYKEITPMLDLAQDLSNRLIQMRKRRGEIDFDINEAKVLVNEDGIPTDVQLRQRGEGERLIESFMLIANETVAEHFSKLDVPFIYRVHEQPKSDRLRQFFDFITNFGIMIKGTGEDIHPTTLQKVQEEVEGRPEQMVISTMMLRSMQQAHYDDVNLGHFGLSAEYYTHFTSPIRRYPDLTVHRLIRKYLIEKSMDNKEVKRWEDKLPELAEHTSKRERRAIEAERDTDELKKAEYMIQHIGDEFEGIVSSVANFGMFIELPNTIEGMVHIANMTDDYYRFEERQMALIGERQAKVFRIGDTVKVKVTHVDVDERLIDFQIVGMPLPKNDRSQRPARGKTIQAKTRGKSLDKSKSDDKGRKKKGSQRKGKNERKNDKSGNSKHKPFYKDKSVKKKARRKKKLEHHHHHH | soluble
MSLRTEEEMFQLIMDVAKQEEHIRAVGMVGSRTNVKAPKDSFQDFDIVYIVEPCAEFFETATWIAKFGQPLIMQRPKEMTLFPTEPKTRETFLMLFEDGQRIDLTLCPLAEKDNWHEGDSLAIILLDKDENLPPLPVASDKNYTVTVPDQQQFNDCCNEFWWVSTYVVKGLCRNELFYAVTHLYEYCQQELLRLLSWQAAWQEPEPISVGKQFKYLKNYVTPDTMDQLASLLDFSSKEACWNSLIKTQAFFDVVAQDFAKMAQFTYHLQEAKKVTEYTNSLRLKDLQGKEGHHHHHH | soluble
